A short description of this data set: label from the status in PepcDB records.
For the sequence “MFIKAERLLIRKFEFKDWEAVHEYTSDSDVMKYIPEGVFTEEDTRNFVNKNMGENAKNFPVILIGENILVGHIVFHKYFGEHTYEIGWVFNPKYFNKGYASEAAQATLKYGFKEMKLHRIIATCQPENTPSYRVMEKIGMRREGYFKKCIPHGNEWWDEYYYAILEEE”, the protein production result was “not failed”.

In the case of “MFIKVKLPWDVTIPAEDMDTGLMLQRAIVIRLLEAFSKEKATKDLGYLITPTILENIGEGKIKEQTGEIQFPVVFNGICFKMFKGEIVHGVVHKVHKTGVFLKSGPYEIIYLSHMKMPGYEFIPGENPFFMNQYMSRIQIGARVRFVVLDTEWREAEKDFMALASIDGDNLGPF”, the protein production result is “failed”.

Take “MFIYGHMEKSERKNYLRESREVSYISLALLIISYIVISSIRFSFYLLSIMLIVSLLNFSIYFYMRYKIHARYHKNIDIQGYILEDNSWRYVLSLSVLLTIFIFLEYPFPFIRFYSFILIVNAFVITTWIVSLNGPIIGMLISRSDPLYEPFLYRAMELANAMNINVPDLYILDTRNRIANAFTVSRKESYVFITRLLMNILDVDEVTAVMAHEFAHIKLRHNLKTSIINFAVILFLINIALYGLTLDSFAGIMLPVISIIIYMFFTTFLLNYIKRRNEINADLTAIKYVNPDYLISALHKIENLEIFSRRISDIYLDHPSIDRRISIINRSRSS”: the protein production entry is recorded as “failed”.

“MFKIDLFSNKKAVEGFILFQLTIVMISILISYKMAYSMTHIIEQNIIFNIIFGIVGFAVVYFLHEFIHNIMFRVMSKGNKPTYRIKSGLITTHMPNVYFKKWQYMTIMLAPLVIITSVLLVIFSYFAYSSIIFIACFHIGYCVMDMYFLTGLLNKHVQLIEDTEEGIKFYTQAPAPAQEFRTELKS”: the protein production result is recorded as “failed”.

Take “MFKITPFSTQQHVIIQITDTHLLEDPQQEFVGINPERSFHCVMQHIRQHHAQIDAIIHTGDLAQTPTPATYARYLDFMQSFGVPFFHVPGNHDHPEFFPFHQASPSELSIVVLGNWHVILMNSAVVGQVDGWINDQQIQQLRDHLAAHPDTPTIVACHHHPFDMHSKWIDQHKLKNTPDLLATFKHYPQIRAVLCGHVHQESLHRWEHIDFLSSPSTSVQFKPRSDEFAFDTLPSGYRILRLNSDGQFDSNIHRIENMLQNINTEISGY”: the protein production result was “failed”.

Take “MFKKEIILGILCLFAACHSNDEIIEEQESPKNEQQEPKARVDIILSHEEQAMSESTNDFAFQLFKQVCVSENRKTNIFISPFSVSLCLSMSANGANGNTLTEIKKVLGFSSSSMDEVNTYNQKLMSSLLNIDNTTQIGIANSVWINQGFVVKNTFIDINKLKYNAWVESLDFSSASAIATINAWCARNTENRLVDIMDEISPEARLILINALYFKGKWTNPFSKEVTKNDFFTNIDGEQVKVDMMCQEESFRCMNNEKFAIAEFPYGNEAFSMVVVLPVENSSLEESLLWLSNDAWKQCETQMSYQKLQVKMPKFSFKYQKPLNSDMSVLGMKDAFILGLADFRNISASENLYLSSLEQFTYLEVNEEGTESAAITTEVPATSTGDDKDIIHFFMDRPFIFMIKEKSTGLILFMGQVTKL”: the protein production entry is listed as “failed”.

With “MFKKRLNKDKINDCYTWEEELPDGSYDMGFHGNLNHMEKGKSGYVTHKQLDKKLEVFKQDLLVELSEKFVTKEEFRAQGKQIKELQIEQKAQGKTLQLILEALQGINKRLDKLESKLEHHHHHH”, the protein production entry is recorded as “not failed”.

As for “MFKKTFSMICCVIFLQGCSQEQEVKKEMTNMETALLAATEKNETNTVISLLKQGANINATDNQGRTPLMIATYKNDVKTAKALIKAGADVNIQDDMKNNPFLYAGAEGYLDILKLTINAGADPTITNRYGGTALIPASEHGYIDVIKELLTRTNIDVNHVNNLGWTALMETIVLSNGNETQQQVIRLLIEHGADVNIPDNDGVTPLEHARAHNFAEIEKILLEGNK”, the protein production result was “failed”.

Turning to “MFLIILIKSLIIGGLVGVGVGAGAARMFHAPTTQGMGAFRTLGELNSCEGDPASHFSFGLGFFFNAWASSVAAGSFTQDVDHRIIPNWGAAALMLKNRNVGETLHDPKKMAISCGIIGMIVVAFLNLTASSVPEALQVTAVKVLVPAANLLVNTVMPVIFWLAAIDAGKKSGFWATIFGGAAQLIMGNAVPGLVLGILIGKGVEESGWNRVTKVMMVAIVALFVLSGFFRGFDMKMIESFHLTVPNWLDMIHNSLSGK”, the protein production entry is recorded as “failed”.

Consider “MFLSDPLPAGGDPVTRLTRYVTRELLPPLLAGTLLFTAILSFGYFFISSQWLSGVPVSLIARWIGYQLPDTLVKVLPMAVVLMTVVAFGRMNTERELVAVQAGGIGLGRVTRPAAVVGLLVTALSVWLSLWVAPRANVETRGLYWDALTGAGLSQLVGKTVDLGQGLTLAMQGYDAGARQMQGVRVEKWDKDNFRQGMVVFADAGKFEGNQLSLTGYQVYRVDYAAAAALSGVADNDPAAFREAVQKVFPLVQVPEDRNAALNLDTGLSRKQTLAQYADAIGADAEGWPELITKLTAPGVPQSERDAARVNLNRKLALPFANLVLVLAALPFALRFGRTLGVSLGVALVIAVAYYLLFSVGLTLAGLLPGLPELGVWLANIVFALGGLWLLRRA”, for which the protein production result is reported as “failed”.

Consider “MFLSGAHSFNANCRRQRQRVFGAPRVPLGESKICCVWAQHFLPCSRVYDPMTSKVSSPTLLEALSSDFLACKICLEQLHTPKTLPCLHTYCQDCLAQLDIGGQVRCPECRETVPVPPEGVAAFKTNFFVNGLLDLVKARAAGDSHSGKPTCALCPLVGGKSSGGPATARCLDCADDLCQACADGHRCSRQTHKHRVVDLVGYRAGWYDEEARERQASQCPQHPGETLCFLCQPCSQLLCKDCRLGPHIDHPCLPLAEAVRSRKPGLEELLAGVDSNLLELEATRVAEKEALALLREQAASVGTQVEEAAERILKSLLAQKQEVLGQLRALVEAAEEATRERLTKIESQEQVAKAAAAFARRVLSLGLEAEILSLEGAITQRLRQLQDTPWTSGPTRCVLPQLELHPGLEDKNCHLLRLSFEEPRQSQKDGGKVGAGTQGGDEAQSQGDDRTKTGKQGGAQPLIPKEGKAQNPPEDDEVLIERGNRPNKKKKCKGRGKSVSREPSPILRPNLEGSGPLPRPVFSWSFPTRMPGDKRSPRITGLCPYGPQEILVADEQNRVLKRFSLNGDYKGTVPVPEGCSPCSVAALQNAVAFSANAKLYLVSPEGEVQWRRSLSLAQSSHAVAAMPCGDRVAVSVAGHVEVYKKEGSLATRFIPGGKASRGQRALVFLTTSPQGNFVGSDWQQNSVVFCDGLGQVIWEYKGPGLHGCQPGSVSVDKKGYIFLTLREVNKVVILDPKGSLLGDFLTAYHGLEKPRVTTMVDGKYLVVSLSNGTIHVFRVRFPDS”, for which the protein production entry is recorded as “failed”.

As for “MFLTLSGADMSALIKGSGPHHVVVLNGWFGHAAGWGAFADYLDLGNYTWHFWDYRGYGNRKDDAGEFTLEEISADIVAYIDSIEAEKVSILGHSMGGVFMQKVLADSATPIASLVGISAVAAAGTPFDEDSRKLFTSAGHNPDSRRAIIDFTSGSRQPAAWLDDLTDSTVQNSTPEAVEKYFFAWADCNFAADLGTQDLPVYILTGDLDPAVTKTAVESAFGPIYQNLTVEELHDVGHYAIFEHPLGLAARVLRFLDAV”, the protein production result is reported as “failed”.

Turning to “MFLTVKLLLGQRCSLKVSGQESVATLKRLVSRRLKVPEEQQHLLFRGQLLEDDKHLSDYCIGPNASINVIMQPLEKMAL”, the protein production entry is listed as “failed”.

In the case of “MFMIKVITPETNHPKEGGILSALVSIYNCTIHIRKPRFTADQYKKYLHDHNQLLSHFVLHEHHSLAKEFPVMGVHLKELDRINPAQVHPDIKIISTSIHSIADAGNLSHPFEYIFYSPLFQSISKENYGTNNSLADLKKTVSELKEQTGIPIIGLGGIYEANIDLVKKSGFDGAALLGAVWVQSDPLAAFGRIASMILEHHHHHH”, the protein production result is recorded as “failed”.

On to “MFNDWRRVLALSGKALGAILFCEAVGLLAAWVTQTSVTTWYPTLTKPSFTPPNWVFAPAWTTLYALMGVAAFLVWRCGPDRTRVRTALTAFGLQLAANAGWSFAFFGARSPALGLVVILGLWGLLAWTMDRFFRVRPVAGWLLVPYLAWVTYALALNAAIWGLN”, for which the protein production entry is “failed”.

On to “MFNNKQKQLVIILISLLLTFTSQASLASDTTILNEIINPQLIHIYEWETLSVYEKENVSQKPANWDSAESFYGSTRLSLLGEERFYRAKFTIGWHHRTRNLAISVGPLKGTDEVYINGFRVDDSGSGDYDLFFQNSYRVYRLPRNKTWFSWFNYTKENELLIKLSSSKRGQVLDSDYVEIGDYETLALKSRDFDSTIKTSQGSAIALLFMLILFIIFLHVNQYNKKSNTLFGFFIFYLSLSIASTSLFLNGPEYDGELLLSLSACLDLVSLVVFIKIVSDKFDLNISHYKRNEKSIKIFGTVSVLCILIFSDIFFAQKWFNLIIYIVMLLVVISTIHQLVIGRNIGGANYSIVSALMIMFLGVAFNGLWGGNSWPISPYHIGAILSSIFLLYSIAQDFKKMTLSMHAMSSRLVNIREIERARLTRDIHDGVGQGLATIRLFITMNINNFEPQLGISLKNEVDQTSNTLKSVIRNLKPIEMDDGNPSEAIIELARHLCEIAQIEMKVIHSDKADMNTENAYQLYRIGQEALNNSIKHSCCTLITIDIQRDRDRLIMSISDNGKGIKKQVENLGYGLSSMQERALLIGGQLRINNAIDSGVQVFLEVPIND”, for which the protein production entry is on record as “failed”.

With “MFPHLALLNAHKRMHTDGEQQQQQQHNAQAGGDSIAVVSAQGLVQAQNIIGNGQMGQIQIVSSDTLEPVQQSVMQQQQHESKASKCINCGSSMLQQSKRKGPKQVRCESCMQAEQTAQQQQQLFVAQDG”, the protein production result was “failed”.

With “MFQPHLPVRLPCYDLAPITSFTLGRSLRLRTSGTPGFHGLTGGVYKARERIHRAMADARLLANPASRSRVADFDPN”, the protein production entry is “failed”.

Regarding “MFQTQFSPINFRETKIIKANYKRFHEIRAKVQTETNDALNENEISAIKKSGFRGHVDISYKSSASFSPLPLQQYFTTMKKIVMRKLRSPVSHCMLVTKCQTTLQIGYIDWMESKSLSNIID”, the protein production entry is “failed”.

On to “MFRKLAAECFGTFWLVFGGCGSAVLAAGFPELGIGFAGVALAFGLTVLTMAFAVGHISGGHFNPAVTIGLWAGGRFPAKEVVGYVIAQVVGGIVAAALLYLIASGKTGFDAAASGFASNGYGEHSPGGYSMLSALVVELVLSAGFLLVIHGATDKFAPAGFAPIAIGLALTLIHLISIPVTNTSVNPARSTAVAIFQGGWALEQLWFFWVVPIVGGIIGGLIYRTLLEKRD”, for which the protein production entry is “not failed”.

For “MFRRLILRQAAAVAAESKIACHHTVHGFEQRRGLHSRNEKAMEYVAKGWSAIKEVERVIDYCELNDRRLIPLLRGAKENFELALEADNLNTHARYWLSKLHLKYHVPGACKAVGAALLVEAADMGNADAQYELGCRLRVENDHVQSDQQAFHYIENAVDQLHPGALYLLGIVYLTGDCVKQDVDSAIWCFHRASEKGHAGAAIAYGSLLLRGVQVPESLTKLNVVGVSPPKRARKNLENPEMNPLEMAKEQFQIAARAGCDLGLKWLQRVEQEEKLLMREQDNECAYV”, the protein production entry is on record as “failed”.

With “MFRRTLPVLAAAVGLAAAAAGPATADDVPADRLPGHRVLDVMTFNIHHAQGTDDVLDLRRVANVIRKSGADVVGLQEVDKHYSARSDWADQPAELAELLGYHVVFGANIDNSPPAPGGHRVQYGTAILSRYPITASDNTWLYKSPGQEQRGLLHATLDVHGKKVEFYNTHLAAGSQADRLQQTAQVVDLIGTRKPGILVGDFNALPAAPESRPLQNAYTDAWAKSLHARGDGATYPAQSPTERIDLIYATRRVTPLVAQVLKDDPAASDHRPLLGKVLV”, the protein production result was “failed”.

For the sequence “MFRVFILFGFGFYLMQLHISGDISKYINMKYAYLSFSAMIAAFLLAIIQLIMVFRDEDIGAKTEHMGHTHDGENTILKKIMVYGLLSYALIAGFLFPVATLDSTIVSAKGFHFPKNNAAGDDPYAQNQFLRPDTSGYFGETDYEKMMAKEKAEIIDQNPIKVNDSNYLMTMEILYNYPGEFTGKQIEFTGFVYNDEVTKDNNLFLFRFGIIHCVADSGVFGMLVQMPEKTNLKNDTWLTVKGTITQEYYSPFKMNIPSVQVESYKEVAKPKSVYVYRKY”, the protein production entry was “failed”.

The values are drawn from a protein production outcome set (Wang et al. 2014).
